# Experimental data reported in IntAct's records for PubMed 19262567.
# Key:
# [1] = biological target: if4e_human EIF4E (UniProt P06730)
# [2] = biological target: if4e_human EIF4E (UniProt P06730); remark: listed apart in the source
# Sequence of if4e_human EIF4E (P06730 whole entry): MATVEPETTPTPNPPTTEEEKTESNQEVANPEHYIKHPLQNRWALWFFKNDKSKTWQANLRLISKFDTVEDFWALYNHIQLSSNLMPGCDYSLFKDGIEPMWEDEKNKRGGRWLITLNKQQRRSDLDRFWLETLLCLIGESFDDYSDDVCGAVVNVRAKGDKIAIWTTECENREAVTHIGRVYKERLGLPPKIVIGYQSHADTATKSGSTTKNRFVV
effect of a mutation on the interaction [1],effect of a mutation on the interaction [2],Substance
disrupting interaction,,"Leucine-rich PPR motif-containing protein, mitochondrial (Homo sapiens) (from UniProt P42704) Y441A"
,disrupting interaction,"Leucine-rich PPR motif-containing protein, mitochondrial (Homo sapiens) (from UniProt P42704) Y583A"
